T1: Human CD73 (Homo sapiens, UniProt P21589)
T1 sequence (P21589 27-547 limits assumed): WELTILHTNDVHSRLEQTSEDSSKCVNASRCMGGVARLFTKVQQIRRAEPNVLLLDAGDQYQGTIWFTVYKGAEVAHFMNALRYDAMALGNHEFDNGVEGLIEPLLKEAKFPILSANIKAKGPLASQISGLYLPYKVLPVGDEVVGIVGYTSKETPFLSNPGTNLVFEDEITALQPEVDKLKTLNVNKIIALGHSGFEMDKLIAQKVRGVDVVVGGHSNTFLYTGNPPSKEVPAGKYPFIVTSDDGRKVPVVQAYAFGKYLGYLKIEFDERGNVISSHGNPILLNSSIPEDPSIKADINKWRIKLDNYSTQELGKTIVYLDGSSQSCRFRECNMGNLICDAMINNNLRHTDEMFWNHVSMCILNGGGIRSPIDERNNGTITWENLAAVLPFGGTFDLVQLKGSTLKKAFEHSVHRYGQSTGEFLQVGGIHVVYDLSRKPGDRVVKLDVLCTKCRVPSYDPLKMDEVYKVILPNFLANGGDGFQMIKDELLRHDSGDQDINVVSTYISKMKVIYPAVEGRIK

B1: Antibody-drug conjugate 1: 900698 antibody cysteine-conjugated to SN-38 via Mc-VC-PAB-DMEDA-PEG linker, DAR about 7.8 (conjugate)
VH: QVQLVESGGGLVKPGGSLRLSCAASGFTFSKYAMSWIRQAPGKGLEWVAEISSGGGYINYADSVKGRFTISRDNAKNSLYLQMNSLRAEDTAVYYCARAIYYYGSSYNYYAMDYWGQGTTVTVSS
VL: DIQMTQSPSSLSASVGDRVTITCRASQDVGTAEAWYQQKPGKAPKLLIYWASTRHTGVPSRFSGSGSGTDFTLTISSLQPEDFATYYCQQYSSYPLTFGQGTKLEIK
B2: Antibody-drug conjugate 2: 900698 antibody cysteine-conjugated to SN-38 via MP2-VC-PAB-DMEDA-PEG linker, DAR about 7.8 (conjugate)
VH: QVQLVESGGGLVKPGGSLRLSCAASGFTFSKYAMSWIRQAPGKGLEWVAEISSGGGYINYADSVKGRFTISRDNAKNSLYLQMNSLRAEDTAVYYCARAIYYYGSSYNYYAMDYWGQGTTVTVSS
VL: DIQMTQSPSSLSASVGDRVTITCRASQDVGTAEAWYQQKPGKAPKLLIYWASTRHTGVPSRFSGSGSGTDFTLTISSLQPEDFATYYCQQYSSYPLTFGQGTKLEIK
B3: 900698: anti-CD73 antibody, VH SEQ ID NO: 35, VL SEQ ID NO: 34 (antibody, V domains shown)
VH: QVQLVESGGGLVKPGGSLRLSCAASGFTFSKYAMSWIRQAPGKGLEWVAEISSGGGYINYADSVKGRFTISRDNAKNSLYLQMNSLRAEDTAVYYCARAIYYYGSSYNYYAMDYWGQGTTVTVSS
VL: DIQMTQSPSSLSASVGDRVTITCRASQDVGTAEAWYQQKPGKAPKLLIYWASTRHTGVPSRFSGSGSGTDFTLTISSLQPEDFATYYCQQYSSYPLTFGQGTKLEIK
modifications: 900696, 900698 (VH); 900695, 900698 (VL)

Tests used:
Human CD73 [1] = target: T1, Human CD73; assay: Biacore binding kinetics with human CD73 protein; design: purchased ACRO Biosystems CD3-H52H7; settings: Human CD73, Biacore T200, protein A chip, 25° C., 1:1 binding model
Method: The binding kinetics of the antibody-drug conjugate 1 and the antibody-drug conjugate 2 prepared in Example 1 and the 900698 naked antibody with a human CD73 protein (manufacturer: ACRO Biosystems, Cat. No. CD3-H52H7) and a monkey CD73 protein (manufacturer: Novoprotein, Cat. No. CI21) were assayed using Biacore (GE, model: T200), with an assay buffer of HBS-EP+ (pH 7.4) and a protein A chip (manufacturer: GE, Cat. No. 29-1275-56).
The temperature for the sample compartment and the flow path was set to 25° C. The protein A chip captured each antigen-binding protein as a ligand, fixing about 100 RU. The human CD73 protein was diluted with the assay buffer to a series of concentrations of 50 nM, 25 nM, 12.5 nM, 6.25 nM, 3.12 nM, and 1.57 nM, serving as analytes, and the assay buffer was used as a 0 concentration control. At a flow rate of 30 μL/min, association was conducted for 120 s, and dissociation was conducted for 600 s. Glycine (10 mM, pH 1.5) was used for regeneration at a flow rate of 50 μL/min for 60 s in a multi-cycle kinetic assay. A 1:1 binding model was used, and the Fit Local mode was selected to determine the association rate constant (ka), dissociation rate constant (kd), and equilibrium dissociation constant (KD).

[2] = tested on: MDA-MB-231 human breast cancer cells; assay: MDA-MB-231 triple-negative breast cancer CDX mouse efficacy model (Example 8); assay type: in vivo, NPG mice; settings: for inhibition of growth of MDA-MB-231 breast cancer: 2.5 and 5 mg/kg i.p. BIW, 8 doses, FIG. 8; for relation of anti-tumor effect to administration dose: 2.5 vs 5 mg/kg i.p. BIW; for inhibitory effect on tumor growth compared with 900698 and Oleclumab: antibodies at 5 mg/kg, i.p. BIW
Method: NPG mice were used to establish an MDA-MB-231 triple-negative breast cancer animal model for assaying the efficacy of the test antibodies. The MDA-MB-231 human breast cancer cells used in this example were incubated in an L-15 medium supplemented with 10% FBS in an incubator at 37° C. without CO2. Before continuous cell culturing for ten generations, about 5.0×10^6 MDA-MB-231 cells were suspended in 100 μL of PBS and then mixed uniformly with an equal volume of Matrigel. The mixture was then inoculated by subcutaneous injection into NPG humanized mice on the right side of the back near the axilla, with an inoculation volume of about 200 μL. The mice were anesthetized with 2%-5% isoflurane prior to the inoculation. On the day of inoculation, 1.0×10^7 PBMCs (100 μL) were injected via the tail vein. When the tumors grew to an average size of about 50-80 mm^3, the […] tumor-bearing mice were randomly divided into 7 groups of 6 based on tumor volume and body weight. […] Oleclumab is an anti-CD73 monoclonal antibody developed by AstraZeneca, currently in Phase 2 clinical trials. The amino acid sequence of the heavy chain of 900201 is as set forth in SEQ ID NO. 43, and the amino acid sequence of the light chain of 900201 is as set forth in SEQ ID NO. 44.

Human CD73 [3] = target: T1, Human CD73; assay: Inhibition of enzymatic activity of soluble recombinant CD73 protein (AMP/ATP, CellTiter-Glo); assay type: biochemical; design: purchased ACRO CD3-H52H7-100 μg; settings: FIG. 3; the three samples compared with each other
Method: The inhibitory effects of the antibody-drug conjugate 1 and the antibody-drug conjugate 2 prepared in Example 1 and the 900698 naked antibody on the enzymatic activity of a recombinant CD73 protein (ACRO, #CD3-H52H7-100 μg) were assayed. The specific procedures were as follows: The series of CD73 antigen-binding proteins were diluted to 120 μg/mL with TM Buffer (ROCKLAND, #MB-059), followed by a 3-fold dilution across 10 gradients. The diluted proteins were each added at 25 µL/well to a 96-well plate. The recombinant CD73 protein was then diluted to 0.3 μg/mL with TM Buffer (ROCKLAND, #MB-059) and added at 25 μL/well to the 96-well plate. The mixture was mixed uniformly. Then, diluted AMP and ATP were mixed at a ratio of 1:1, and the mixture was added at 50 μL/well to the above 96-well plate. The resulting mixture was allowed to react for 15 min. Finally, a CellTiter-Glo® substrate was added to a CellTiter-Glo® buffer. The mixture was mixed uniformly and equilibrated to room temperature, and then added at 100 μL/well to the wells to be tested. The resulting mixture was allowed to react at room temperature for 10 min and then subjected to full-wavelength detection.
The results for the inhibition of the enzymatic activity of the soluble recombinant CD73 antigen protein (ACRO, #CD3-H52H7-100 μg) by the antibody-drug conjugate 1, the antibody-drug conjugate 2, and the 900698 naked antibody are shown in FIG. 3 (represented as 1-3 in FIG. 3, respectively).

Molecule | ka (Human CD73 [1]) | kd (Human CD73 [1]) | inhibition of growth of MDA-MB-231 breast cancer [2] | relation of anti-tumor effect to administration dose [2] | inhibitory effect on tumor growth compared with 900698 and Oleclumab [2] | inhibitory effect on the enzymatic activity of the soluble recombinant CD73 protein (Human CD73 [3])
B1 | 381000 M⁻¹ s⁻¹ | 0.000129 s⁻¹ | significantly inhibit the growth | positively correlated with the administration dose | significantly superior | comparable inhibitory effects
B2 | 643000 M⁻¹ s⁻¹ | 0.000228 s⁻¹ | significantly inhibit the growth | positively correlated with the administration dose | significantly superior | comparable inhibitory effects
B3 | 147000 M⁻¹ s⁻¹ | 0.000104 s⁻¹ |  |  |  | comparable inhibitory effects
